Test results published in PMC3285688, “Active Site Mutations Change the Cleavage Specificity of Neprilysin” (PLoS ONE, 2012).
Changes are numbered by the printed parent chain. Names may count otherwise.

B1: NEP^F563V: neprilysin active site mutant, Phe563 to valine (protein, UniProt P08473 2-750, looked up, variant F563V)
Neprilysin: GKSESQMDITDINTPKPKKKQRWTPLEISLSVLVLLLTIIAVTMIALYATYDDGICKSSDCIKSAARLIQNMDATTEPCTDFFKYACGGWLKRNVIPETSSRYGNFDILRDELEVVLKDVLQEPKTEDIVAVQKAKALYRSCINESAIDSRGGEPLLKLLPDIYGWPVATENWEQKYGASWTAEKAIAQLNSKYGKKVLINLFVGTDDKNSVNHVIHIDQPRLGLPSRDYYECTGIYKEACTAYVDFMISVARLIRQEERLPIDENQLALEMNKVMELEKEIANATAKPEDRNDPMLLYNKMTLAQIQNNFSLEINGKPFSWLNFTNEIMSTVNISITNEEDVVVYAPEYLTKLKPILTKYSARDLQNLMSWRFIMDLVSSLSRTYKESRNAFRKALYGTTSETATWRRCANYVNGNMENAVGRLYVEAAFAGESKHVVEDLIAQIREVFIQTLDDLTWMDAETKKRAEEKALAIKERIGYPDDIVSNDNKLNNEYLELNYKEDEYFENIIQNLKFSQSKQLKKLREKVDKDEWISGAAVVNAFYSSGRNQIVFPAGILQPPVFSAQQSNSLNYGGIGMVIGHEITHGFDDNGRNFNKDGDLVDWWTQQSASNFKEQSQCMVYQYGNFSWDLAGGQHLNGINTLGENIADNGGLGQAYRAYQNYIKKNGEEKLLPGLDLNHKQLFFLNFAQVWCGTYRPEYAVNSIKTDVHSPGNFRIIGTLQNSAEFSEAFHCRKNSYMNPEKKCRVW
B2: NEP^F563K: neprilysin active site mutant, Phe563 to lysine (low expressing) (protein, UniProt P08473 2-750, looked up, variant F563K)
Neprilysin: B1 Neprilysin with V563K
B3: NEP^S546A: neprilysin active site mutant, Ser546 to alanine (protein, UniProt P08473 2-750, looked up, variant S546A)
Neprilysin: B1 Neprilysin with S546A, V563F
B4: NEP^F563M: neprilysin active site mutant, Phe563 to methionine (protein, UniProt P08473 2-750, looked up, variant F563M)
Neprilysin: B1 Neprilysin with V563M
B5: NEP^S546T: neprilysin active site mutant, Ser546 to threonine (protein, UniProt P08473 2-750, looked up, variant S546T)
Neprilysin: B1 Neprilysin with S546T, V563F
B6: NEP^F563I: neprilysin active site mutant, Phe563 to isoleucine (protein, UniProt P08473 2-750, looked up, variant F563I)
Neprilysin: B1 Neprilysin with V563I

Legend:
Type in all cases: biochemical
leu-ENK [1] = assay: Dual substrate assay: leu-ENK hydrolysis in presence of insulin B chain; details: 15 µM insulin B chain and 64 µM leu-ENK together, 37°C, 20 mM MES buffer, pH 6.5; for leu-ENK hydrolysis, activity relative to the uninhibited value: numbers in parenthesis
Description: (§1) The rate of cleavage of a substrate mixture is determined by both the kcat for that substrate as well by the affinity for the substrate. […] This is expected, given that each peptide acts as a competitive inhibitor of the other. […] That is the ratio for leu-ENK/insulin B chain cleavage is 3 for NEP^S546E compared to 6 for wild-type NEP.
(§2) Cleavage of physiological peptides was measured via reverse phase high performance liquid chromatography (HPLC) following incubation of the purified NEP or its mutants with 15 µM insulin B chain (Sigma Aldrich), 24 µM Aß1–40 (Anaspec), or 64 µM leu-ENK (Sigma) in 100 µL of 20 mM MES, pH 6.5, at 37°C. Reactions were run in triplicate. HPLC was carried out in a Vydac C4 column using a linear gradient from 0.1% trifluoroacetic acid (TFA) in 95% water, 5% acetonitrile to 0.1% TFA in 50% acetonitrile/water at a flow rate of 1 mL/min. Peptides and hydrolysis products were detected at 214 nm and quantified by measuring peak areas. Peptides obtained from HPLC were analyzed on an Applied Biosystems 4800 MALDI TOF/TOF Proteomics Analyzer at the University of Kentucky Proteomics core. This facility is supported in part by grant P20RR020171 from the NIH/NCRR.

[2] = tested on: leu-ENK and insulin B chain; assay: Dual substrate assay: substrate preference leu-ENK versus insulin B chain; details: for Substrate preference leu-ENK/insulin B chain (in words): dual substrate assay, versus wild-type; for Ratio leu-ENK insulin B chain: ratio of rates, 15 µM insulin B chain and 64 µM leu-ENK together
Description: as §1, §2

Aß1–40 = assay: Rate of Aß1–40 hydrolysis (HPLC); details: 24 µM Aß1–40, 37°C, 20 mM MES buffer, pH 6.5; disappearance of substrate by HPLC; at least triplicate
Description: as §2
(§3) Statistical analysis comparing wild-type NEP and its mutants was performed with Prism 4 software using a two-tailed paired t-test with a 95% confidence interval.

insulin B chain [3] = assay: Insulin B chain as alternate substrate (competitive) inhibitor of Glut-Ala-Ala-Phe-MNA hydrolysis (Dixon plot); details: insulin B chain 1 to 40 µM as competitive inhibitor of Glut-Ala-Ala-Phe-MNA hydrolysis by the enzyme form, 37°C, 20 mM MES, pH 6.5, ID50 converted to Ki
Description: (§4) Kinetic constants for NEP and its mutants were obtained using the assay conditions noted above, but with Glut-Ala-Ala-Phe-MNA varied from 20 to 500 µM. Typically 12 data points were obtained. The data were fit to the Michaelis-Menten equation using Prism4 software. The Ki for insulin B chain was obtained by measuring the rate of Glut-Ala-Ala-Phe-MNA hydrolysis in the presence of varying concentrations of insulin B chain from 1 to 40 µM. Data were fit to a Dixon plot (1/rate versus [insulin B chain]) using Prism4 software and the ID50 obtained as the –x intercept, where ID50 corresponds to the concentration of insulin producing 50% inhibition. The actual Ki was obtained from the equation: ID50 = Ki (1+ [Glut-Ala-Ala-Phe-MNA]/KmGlut-Ala-Ala-Phe-MNA), [33].

insulin B chain [4] = assay: Rate of insulin B chain hydrolysis (HPLC); details: 15 µM insulin B chain, 37°C, 20 mM MES buffer, pH 6.5; disappearance of substrate by HPLC; at least triplicate
Description: as §2, §3

[5] = Hydrolysis of synthetic substrate Glut-Ala-Ala-Phe-MNA by NEP and mutants (fluorogenic); details: for Specific Activity (Glut-Ala-Ala-Phe-MNA cleavage): 100 µM Glut-Ala-Ala-Phe-MNA, fluorescence ex 340 nm, em 425 nm; for Specific Activity (Glut-Ala-Ala-Phe-MNA cleavage) / Km: 37°C, 20 mM MES buffer, pH 6.5; for Km: Glut-Ala-Ala-Phe-MNA 20 to 500 µM, Michaelis-Menten fit; for Activity relative to wild-type enzyme (Glut-Ala-Ala-Phe-MNA): pH 6.5, 37°C
Description: Reactions of 400 µl contained 100 µM Glut-Ala-Ala-Phe-MNA, 1 µg of aminopeptidase and 15 to 100 ng of NEP or mutant NEP depending on their activity in 20 mM MES buffer, pH 6.5. Activity was monitored with a Spectra Max Gemini XS plate reader using an excitation wavelength of 340 nm and an emission wavelength of 425 nm.
as §4

insulin B chain [6] = assay: Dual substrate assay: insulin B chain hydrolysis in presence of leu-ENK; details: 15 µM insulin B chain and 64 µM leu-ENK together, 37°C, 20 mM MES buffer, pH 6.5; for Insulin B Chain hydrolysis, activity relative to the uninhibited value: numbers in parenthesis
Description: as §1, §2

leu-ENK [7] = assay: Rate of leu-ENK hydrolysis (HPLC); details: for Rate of hydrolysis of leu-ENK: 37°C, 20 mM MES buffer, pH 6.5, disappearance of substrate by HPLC, at least triplicate
Description: as §2, §3

Molecule	leu-ENK hydrolysis rate, dual substrate assay (leu-ENK [1]) [pmol/min/ng]	leu-ENK hydrolysis, activity relative to the uninhibited value (leu-ENK [1])	Substrate preference leu-ENK/insulin B chain (in words) [2]	Ratio leu-ENK insulin B chain [2]	Rate of hydrolysis of Aß1–40 (Aß1–40) [fmol/min/ng]	Ki (insulin B chain [3]) [µM]	Rate of hydrolysis of Insulin B Chain (insulin B chain [4]) [pmol/min/ng]	Specific Activity (Glut-Ala-Ala-Phe-MNA cleavage) [5] [pmol/min/ng]	Km [5] [µM]	Activity relative to wild-type enzyme (Glut-Ala-Ala-Phe-MNA) [5] [%]	Insulin B Chain hydrolysis rate, dual substrate assay (insulin B chain [6]) [pmol/min/ng]	Insulin B Chain hydrolysis, activity relative to the uninhibited value (insulin B chain [6])	leu-ENK cleavage rate as fraction of wild-type rate (leu-ENK [7]; 64 µM leu-ENK)	Rate of hydrolysis of leu-ENK (leu-ENK [7]; 64 µM leu-ENK) [pmol/min/ng]	leu-ENK cleavage rate relative to wild-type NEP rate (leu-ENK [7]; 64 µM leu-ENK, pH 6.5, 37°C)	Increase in preference for leu-ENK (over Aß1–40) (leu-ENK [7]; relative to NEP, from separate single-substrate rates)
B1	0.23 ± 0.03	0.74	no change in overall substrate preference	5.8	14 ± 1	1 ± 0.1	0.06 ± 0.02	11.2 ± 0.3	51 ± 10	~25	0.04 ± 0.01	0.67	1/6	0.31 ± 0.02	less than 20%	two fold
B2										< 1						
B3									118 ± 7							
B4	0.69 ± 0.11	0.57	no change in overall substrate preference	6.3	85 ± 3	1.2 ± 0.1	0.21 ± 0.01	19.2 ± 0.4	87 ± 8		0.11 ± 0.02	0.52		1.21 ± 0.22		
B5									73 ± 6							
B6	0.62 ± 0.03	0.58	shift in substrate preference toward leu-ENK	31.0	43 ± 1	2.5 ± 0.9	0.13 ± 0.02	17.7 ± 0.6	83 ± 4		0.02 ± 0.01	0.15		1.06 ± 0.17		
